Data: patent US12448462 (dated 2025)
Read-outs that look alike come from different tables or passages of the source.

Experiments:
MUC1 (MUC1-C) on cells [1] = target: T1, MUC1 (MUC1-C) on cells (UniProt P15941 24-1255); assay: flow
MUC1 (MUC1-C) on cells [2] = target: T1, MUC1 (MUC1-C) on cells; assay: flow; remark: listed apart in the source

B1: T4E3 scFv-Fc (Fc fusion)
VH: QVQLVQSGGGLVQPGGSLRLSCAASGFTFDDYAMHWVRQAPGKGLEWVSGISWNSGSIGYADSVKGRFTISRDNAKNSLYLQMNSLRAEDTALYYCAKDIGSGSYYNYYYGMDVWGQGTTATISS
VL: SSELTQDPAVSVALGQTVRITCQGDSLRSYYASWYQQKPGQAPVLVIYGKNSRPSGIPDRFSGSNSGSTASLTITGAQAEDEADYYCNSRDRYGNSLVIFGGGTKLTVL
B1 gave an EC50 (MUC1 (MUC1-C) on cells [1]) of 0.033 µg/mL and an EC50 (MUC1 (MUC1-C) on cells [2]) of 0.033 µg/mL.
